From patent US20260232827A1 (Zymeworks, published 2026) come the findings set out here.

The target of assay [1] is T1, human sodium-dependent phosphate transporter 2B (NaPi2b) (human, UniProt O95436 1-690).
T1 construct: Endogenous on tumor cell lines (IGROV-1, OVCAR-3, HCC-78, TOV-21G, NCI-H441) or transfected into HEK293-6e cells with pTT5-huNaPi2b (CL_#13432); also called Hu NaPi2b; hNaPi2b
T1 sequence: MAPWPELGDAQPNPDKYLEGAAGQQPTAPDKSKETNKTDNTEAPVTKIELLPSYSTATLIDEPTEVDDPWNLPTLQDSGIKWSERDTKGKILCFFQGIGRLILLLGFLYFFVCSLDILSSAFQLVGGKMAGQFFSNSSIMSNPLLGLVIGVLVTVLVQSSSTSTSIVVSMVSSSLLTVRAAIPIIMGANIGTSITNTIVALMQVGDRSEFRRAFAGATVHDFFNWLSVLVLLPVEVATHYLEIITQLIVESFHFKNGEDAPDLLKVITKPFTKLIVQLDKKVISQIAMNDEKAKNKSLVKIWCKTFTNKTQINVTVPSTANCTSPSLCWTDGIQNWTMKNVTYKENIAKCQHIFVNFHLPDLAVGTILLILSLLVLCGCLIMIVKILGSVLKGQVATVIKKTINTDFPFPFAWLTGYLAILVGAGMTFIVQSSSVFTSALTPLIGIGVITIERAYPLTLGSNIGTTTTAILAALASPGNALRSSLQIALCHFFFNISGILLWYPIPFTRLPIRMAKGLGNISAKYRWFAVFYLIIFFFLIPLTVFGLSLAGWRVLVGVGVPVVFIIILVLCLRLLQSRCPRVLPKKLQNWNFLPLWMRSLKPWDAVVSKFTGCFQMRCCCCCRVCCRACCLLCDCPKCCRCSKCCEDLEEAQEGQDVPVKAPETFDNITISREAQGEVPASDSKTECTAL
Briefly: flow cytometry on HEK293-6e cells transfected with human NaPi2b. For orientation: Flow cytometry measures light scatter and fluorescence of single cells or particles in a stream.
Description: (§1) Following transfection, cells were seeded at 50,000 cells/well in conical-bottom 96-well plates and treated with test antibody or antibody-drug conjugate for 24 hours at 4° C. to prevent internalization. […] Following incubation and washing, fluorescence was detected by flow cytometry on a BD LSRFortessa™ Cell Analyzer (BD Biosciences, Franklin Lake, NJ) with 1,000 minimum events collected per well.

Assay [2] concerns the target T2, mouse NaPi2b (mouse, UniProt Q9DBP0 1-697).
T2 construct: Transfected into HEK293-6e cells (clone CL_#13476); also called Ms NaPi2b
T2 sequence: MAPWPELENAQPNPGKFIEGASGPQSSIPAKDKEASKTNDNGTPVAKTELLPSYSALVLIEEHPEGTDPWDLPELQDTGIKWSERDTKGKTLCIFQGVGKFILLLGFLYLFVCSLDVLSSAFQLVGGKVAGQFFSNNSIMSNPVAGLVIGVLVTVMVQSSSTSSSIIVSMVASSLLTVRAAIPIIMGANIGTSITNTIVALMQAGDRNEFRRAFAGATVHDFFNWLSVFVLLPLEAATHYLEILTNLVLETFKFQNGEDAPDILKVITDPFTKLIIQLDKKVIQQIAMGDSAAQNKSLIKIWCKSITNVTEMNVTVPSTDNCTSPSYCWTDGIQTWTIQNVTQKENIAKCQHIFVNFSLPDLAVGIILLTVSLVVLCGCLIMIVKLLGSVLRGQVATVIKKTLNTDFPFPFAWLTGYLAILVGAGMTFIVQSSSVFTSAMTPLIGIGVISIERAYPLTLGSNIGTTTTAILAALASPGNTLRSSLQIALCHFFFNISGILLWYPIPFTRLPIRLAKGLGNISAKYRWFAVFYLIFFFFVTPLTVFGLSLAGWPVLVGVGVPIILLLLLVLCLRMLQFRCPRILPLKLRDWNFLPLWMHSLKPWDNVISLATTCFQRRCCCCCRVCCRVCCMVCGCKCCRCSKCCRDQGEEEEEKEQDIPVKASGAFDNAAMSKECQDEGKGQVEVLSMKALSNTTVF
Description: flow cytometry on HEK293-6e cells transfected with mouse NaPi2b.
Description: as §1

In assay [3] the target is T3, cynomolgus monkey NaPi2b (cynomolgus monkey, UniProt O95436 1-690 (human entry)).
T3 construct: Transfected into HEK293-6e cells (clone CL_#13433); also called Cy NaPi2b; Cyno NaPi2b
T3 chain: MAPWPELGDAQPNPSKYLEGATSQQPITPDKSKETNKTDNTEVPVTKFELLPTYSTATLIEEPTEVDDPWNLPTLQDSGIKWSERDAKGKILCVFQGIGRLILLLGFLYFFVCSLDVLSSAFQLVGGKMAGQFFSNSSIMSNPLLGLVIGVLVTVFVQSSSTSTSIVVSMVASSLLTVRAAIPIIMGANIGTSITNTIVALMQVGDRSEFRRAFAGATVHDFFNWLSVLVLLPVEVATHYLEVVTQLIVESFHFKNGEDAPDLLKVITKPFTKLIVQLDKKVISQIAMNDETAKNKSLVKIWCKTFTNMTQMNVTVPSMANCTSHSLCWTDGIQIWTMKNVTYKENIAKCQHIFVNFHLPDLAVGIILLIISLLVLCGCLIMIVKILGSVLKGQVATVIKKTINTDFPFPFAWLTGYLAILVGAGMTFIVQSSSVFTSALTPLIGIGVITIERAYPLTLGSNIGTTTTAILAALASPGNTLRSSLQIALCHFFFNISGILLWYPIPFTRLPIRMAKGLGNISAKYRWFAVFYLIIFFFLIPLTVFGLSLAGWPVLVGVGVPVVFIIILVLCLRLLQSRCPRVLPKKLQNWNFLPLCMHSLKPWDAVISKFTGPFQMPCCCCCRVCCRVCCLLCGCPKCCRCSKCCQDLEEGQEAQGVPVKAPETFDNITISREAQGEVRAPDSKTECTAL
Description: flow cytometry on HEK293-6e cells transfected with cynomolgus NaPi2b, apparent Kd.
Description: as §1

The target of assay [4] is T1, human sodium-dependent phosphate …. Briefly: flow cytometry on HEK293-6e cells transfected with human NaPi2b, apparent Kd.
Description: as §1
Assay [5] has as its target T2, mouse NaPi2b. Description: flow cytometry on HEK293-6e cells transfected with mouse NaPi2b, apparent Kd.
Description: as §1
Assay [6] has as its target T1, human sodium-dependent phosphate …. Description: flow cytometry on OVCAR-3 cells, 24 h at 4 C, anti-human IgG Fc AF647.
Description: (§2) Following incubation and washing, fluorescence was detected by flow cytometry on a BD LSRFortessa™ Cell Analyzer (BD Biosciences, Franklin Lake, NJ) with 1,000 minimum events collected per well.
For assay [7] the target is unchanged. Description: cell-based or functional assay.
For assay [8] the target is unchanged. Briefly: flow cytometry on HEK293-6e cells transfected with human NaPi2b, apparent Kd. This is another data set of the same source.
Description: as §1
Assay [9] has as its target T3, cynomolgus monkey NaPi2b. Briefly: flow cytometry on HEK293-6e cells transfected with cynomolgus NaPi2b.
Description: as §1
The target in assay [10] is T1, human sodium-dependent phosphate …. Description: flow cytometry on IGROV-1 cells, 24 h at 4 C, anti-human IgG Fc AF647.
Description: as §2
For assay [11] the target is unchanged. Description: flow cytometry on HEK293-6e cells transfected with human NaPi2b. The source holds these as a separate data set.
Description: as §1
The target of assay [12] is T4, human sodium-dependent phosphate transporter 2B (NaPi2b) (human, UniProt O95436 1-690).
T4 construct: UniProt ID is given as 095436 [sic]; also called hNaPi2b; Hu NaPi2b
T4 sequence: T1 sequence
Briefly: KinExA, monovalent antibody, IGROV-1 cells (endogenous NaPi2b) as titrant, N-curve analysis.
Description: The solid phase was prepared by coating one vial of PMMA (polymethyl methacrylate) beads (Sapidyne, Boise, Idaho) with 1 mL of 20 μg/mL BSA-biotin (Sigma-Aldrich, St. Louis, Missouri) in PBS pH 7.4. The beads were incubated for 2 hours at room temperature with gentle rotation. Beads were settled, supernatant removed, and beads rinsed five times with PBS pH 7.4. The beads were then coated with 1 mL of 100 μg/mL of streptavidin (Jackson ImmunoResearch, West Grove, PA) in PBS pH 7.4 with 10 mg/mL BSA (Sigma-Aldrich, St. Louis, Missouri) with rotation at room temperature for 1 hour. Beads were settled, supernatant removed, and beads rinsed five times with PBS pH7.4. The final step of the solid phase preparation was done by coating with 30 μg/mL of biotin goat anti-human IgG (Jackson ImmunoResearch, West Grove, PA) for 1 hour with rotation at room temperature.
The cell-binding assay was set up using the antibody constructs or variants as constant binding partner at two different concentrations of 50 μM and 500 μM. For the titration curve with antibody variants fixed at 50 μM, at least 10 million IGROV-1 cells were used as titrant. For the titration curve with antibody variants fixed at 500 μM, at least 5 million cells were used as titrant. The antibody variants and cells were mixed in PBS pH 7.4, 1 mg/mL BSA, 0.2% NaN₃ and incubated at 4° C. for 7 days with gentle rotation until equilibrium was reached. After incubation, the mixture of antibody variants and cells was centrifuged to separate the cells from the unbound free antibody variants.
N-curve analysis was used to calculate the affinity and receptor expression level with the concentrations of antibody variant as reference point.

B1: v18992 (MX35) (antibody, human IgG1, kappa)
heavy 1: GQVQLVQSGAEVVKPGASVKMSCKASGYTFTGYNIHWVKQAPGQGLEWIGAIYPGNGDTSYKQKFRGRATLTADTSTSTVYMELSSLRSEDSAVYYCARGETARATFAYWGQGTLVTVSSASTKGPSVFPLAPSSKSTSGGTAALGCLVKDYFPEPVTVSWNSGALTSGVHTFPAVLQSSGLYSLSSVVTVPSSSLGTQTYICNVNHKPSNTKVDKKVEPKSCDKTHTCPPCPAPELLGGPSVFLFPPKPKDTLMISRTPEVTCVVVDVSHEDPEVKFNWYVDGVEVHNAKTKPREEQYNSTYRVVSVLTVLHQDWLNGKEYKCKVSNKALPAPIEKTISKAKGQPREPQVYVYPPSRDELTKNQVSLTCLVKGFYPSDIAVEWESNGQPENNYKTTPPVLDSDGSFALVSKLTVDKSRWQQGNVFSCSVMHEALHNHYTQKSLSLSPG
heavy 2: not shown
light: GDIQMTQSPSSLSASVGDRVTITCSASQDIGNFLNWYQQKPGKTVKVLIYYTSSLYSGVPSRFSGSGSGTDYTLTISSLQPEDFATYYCQQYSKLPLTFGQGTKLELKRTVAAPSVFIFPPSDEQLKSGTASVVCLLNNFYPREAKVQWKVDNALQSGNSQESVTEQDSKDSTYSLSSTLTLSKADYEKHKVYACEVTHQGLSSPVTKSFNRGEC
notes: Two different heavy chains (heterodimeric Fc)
As for B1, the Bmax in assay [1] came to 548; with mouse NaPi2b [2], 379; in [6], 14500; in the assay with cynomolgus monkey NaPi2b [9], 378; in assay [10] it was 21400; in assay [11] it was 548. The Kd in the assay with cynomolgus monkey NaPi2b [3] was 0.67 nM; in [4], 1.51 nM; with mouse NaPi2b [5] it was 0.35 nM; in assay [6], 3.03 nM; in assay [8], 1.51 nM; in [10], 1.49 nM. In assay [7], the “Internalized Fluorescence in OVCAR-3, 15 min, 100 nM” value was determined as 6650. For the same molecule, the “Internalized Fluorescence in OVCAR-3, 4 hr, 100 nM” value in assay [7] worked out at 16100. Also, the “Internalized Fluorescence in OVCAR-3, 16 hr, 100 nM” value in assay [7] is 18600. The “Internalized Fluorescence in OVCAR-3, 24 hr, 100 nM” value in [7] worked out at 28600.

B2: v29814 (monovalent format of parental chimeric variant 23855) (antibody, V domains shown)
VH: QAYLQQSGAELVRPGASVKMSCKASGFTFTSYNVHWVKQTPRQGLEWIAAISPGNGDLSYNQRFKDKATLTVDRSSSTAYMQLSGLTSEDSAVYFCARGRTGMGAVDYWGQGTSVTVSS
VL: DVQMTQTASSLSASLGDRVTISCRASQDVYSYLNWYQQKPHGTVKLLIYYTSRLQSGVPSRFTGSGSGTDYSLTISNLEPEDIATYYCQQYNIFPWTFGGGTKLEIK
notes: Monovalent format; VH and VL are those of v23855; also called parental chimeric monovalent antibody variant
B2: the Kd in assay [12] was determined as 0.15 nM.

B3: humanized anti-NaPi2b antibody variant v38591 (antibody, human IgG1, kappa)
heavy: not shown
light: DVQMTQSPSSLSASVGDRVTITCRASQDVYSYLNWYQQKPGKAVKLLIYYTSRLQSGVPSRFSGSGSGTDYTLTISSLQPEDFATYYCQQYNIFPWTFGQGTKLEIKRTVAAPSVFIFPPSDEQLKSGTASVVCLLNNFYPREAKVQWKVDNALQSGNSQESVTEQDSKDSTYSLSSTLTLSKADYEKHKVYACEVTHQGLSSPVTKSFNRGEC
notes: Human IgG1/kappa, full-size antibody; same as v29456 but the heavy chains include a C-terminal lysine; also called v38591 (H1L2); v38591 wild-type Fc
Regarding B3, the Bmax in assay [1] was 651; in the assay with mouse NaPi2b [2], 385; in assay [6], 15100; in the assay with cynomolgus monkey NaPi2b [9], 429; in assay [10] it was 22200; in assay [11], 651. In addition, the Kd with cynomolgus monkey NaPi2b [3] is 0.27 nM; in [4], 1.68 nM; in the assay with mouse NaPi2b [5] it was 0.29 nM; in assay [6], 2.8 nM; in assay [8], 1.68 nM; in assay [10], 1.67 nM. Also, the “Internalized Fluorescence in OVCAR-3, 15 min, 100 nM” value in [7] is 7620. The “Internalized Fluorescence in OVCAR-3, 4 hr, 100 nM” value in assay [7] was found to be 16600. Moreover, the “Internalized Fluorescence in OVCAR-3, 16 hr, 100 nM” value in assay [7] is 24300. For the same molecule, the “Internalized Fluorescence in OVCAR-3, 24 hr, 100 nM” value in [7] amounted to 32400.

B4: v18993 (lifastuzumab) (antibody, human IgG1, kappa)
heavy 1: GEVQLVESGGGLVQPGGSLRLSCAASGFSFSDFAMSWVRQAPGKGLEWVATIGRVAFHTYYPDSMKGRFTISRDNSKNTLYLQMNSLRAEDTAVYYCARHRGFDVGHFDFWGQGTLVTVSSASTKGPSVFPLAPSSKSTSGGTAALGCLVKDYFPEPVTVSWNSGALTSGVHTFPAVLQSSGLYSLSSVVTVPSSSLGTQTYICNVNHKPSNTKVDKKVEPKSCDKTHTCPPCPAPELLGGPSVFLFPPKPKDTLMISRTPEVTCVVVDVSHEDPEVKFNWYVDGVEVHNAKTKPREEQYNSTYRVVSVLTVLHQDWLNGKEYKCKVSNKALPAPIEKTISKAKGQPREPQVYVYPPSRDELTKNQVSLTCLVKGFYPSDIAVEWESNGQPENNYKTTPPVLDSDGSFALVSKLTVDKSRWQQGNVFSCSVMHEALHNHYTQKSLSLSPG
heavy 2: not shown
light: GDIQMTQSPSSLSASVGDRVTITCRSSETLVHSSGNTYLEWYQQKPGKAPKLLIYRVSNRFSGVPSRFSGSGSGTDFTLTISSLQPEDFATYYCFQGSFNPLTFGQGTKVEIKRTVAAPSVFIFPPSDEQLKSGTASVVCLLNNFYPREAKVQWKVDNALQSGNSQESVTEQDSKDSTYSLSSTLTLSKADYEKHKVYACEVTHQGLSSPVTKSFNRGEC
notes: as for B1
Turning to B4, the Bmax in assay [1] turned out to be 678; in [6], 14500; in the assay with cynomolgus monkey NaPi2b [9], 424; in assay [10], 20000; in assay [11], 678. For the same molecule, the Kd with cynomolgus monkey NaPi2b [3] was 4.71 nM; in [4], 5.76 nM; in assay [6], 5.79 nM; in [8] it was 5.76 nM; in assay [10], 2.69 nM. In assay [7], the “Internalized Fluorescence in OVCAR-3, 15 min, 100 nM” value came to 2480. The “Internalized Fluorescence in OVCAR-3, 4 hr, 100 nM” value in [7] amounted to 8750. Moreover, the “Internalized Fluorescence in OVCAR-3, 16 hr, 100 nM” value in [7] amounted to 8600. Further, the “Internalized Fluorescence in OVCAR-3, 24 hr, 100 nM” value in [7] was 13900.
